Results on 10 molecules are retold here after patent US20040260068A1 (published 2004).

Changes are numbered by the printed parent chain. Names and notes keep the numbering of the source. Values joined by “and” are separate entries in the source; they are usually repeats but may differ in a detail not shown here. Identical values can stand only once.

The target in assay [1] is T1, mouse IL-12 (mouse, UniProt P43431 23-215; P43432 23-335).
T1 sequence (looked up) 1: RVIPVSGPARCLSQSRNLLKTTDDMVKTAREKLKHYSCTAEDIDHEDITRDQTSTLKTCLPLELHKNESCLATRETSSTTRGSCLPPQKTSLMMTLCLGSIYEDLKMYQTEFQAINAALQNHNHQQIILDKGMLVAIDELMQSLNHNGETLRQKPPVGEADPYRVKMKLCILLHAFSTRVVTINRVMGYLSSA
T1 sequence (looked up) 2: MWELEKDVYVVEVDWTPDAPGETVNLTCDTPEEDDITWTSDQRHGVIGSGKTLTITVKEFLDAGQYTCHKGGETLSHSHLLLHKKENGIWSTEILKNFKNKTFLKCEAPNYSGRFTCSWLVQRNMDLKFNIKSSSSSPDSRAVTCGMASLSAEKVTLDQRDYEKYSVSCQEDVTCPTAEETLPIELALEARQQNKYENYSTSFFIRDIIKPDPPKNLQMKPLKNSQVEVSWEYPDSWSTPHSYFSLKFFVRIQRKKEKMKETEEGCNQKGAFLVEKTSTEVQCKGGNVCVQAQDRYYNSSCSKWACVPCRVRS
Put plainly: competition ELISA on coated mouse IL-12; competitor of biotinylated humanized B1. As for the experimental part: (§1) MaxiSorp plates were coated with 100 μl of 0.1 μg/ml human or mouse IL-12 (R&D) and blocked with Superblock blocking buffer. […] As a background control, 100 μl of ELISA Buffer was used. ELISA plates were incubated at room temperature for 2 hr. After washing the wells with Washing Buffer (PBS containing 0.1 % Tween 20), 100 μl of 1 μg/ml HRP-conjugated streptavidin (Pierce) in ELISA buffer was added to each well. ELISA plates were incubated at room temperature for 30 min and washed with Washing Buffer. For color development, 100 μI/well of ABTS substrate was added. Color development was stopped by adding 100 μl/well of 2% oxalic acid. Absorbance was read at 415 nm.

The target of assay [2] is T1, mouse IL-12. The experiment in a line: competitive binding assay (competition ELISA). As for the experimental part:
as §1

Assay [3] concerns the target T2, human IL-12 (human, UniProt P29459 23-219; P29460 23-328).
T2 construct: also called human IL-12 p70 heterodimer; IL-12 p75
T2 sequence (looked up) 1: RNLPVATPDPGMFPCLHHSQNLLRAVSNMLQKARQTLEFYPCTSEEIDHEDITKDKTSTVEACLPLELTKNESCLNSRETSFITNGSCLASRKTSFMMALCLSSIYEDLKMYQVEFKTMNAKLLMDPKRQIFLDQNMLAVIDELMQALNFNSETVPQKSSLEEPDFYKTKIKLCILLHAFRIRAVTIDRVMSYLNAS
T2 sequence (looked up) 2: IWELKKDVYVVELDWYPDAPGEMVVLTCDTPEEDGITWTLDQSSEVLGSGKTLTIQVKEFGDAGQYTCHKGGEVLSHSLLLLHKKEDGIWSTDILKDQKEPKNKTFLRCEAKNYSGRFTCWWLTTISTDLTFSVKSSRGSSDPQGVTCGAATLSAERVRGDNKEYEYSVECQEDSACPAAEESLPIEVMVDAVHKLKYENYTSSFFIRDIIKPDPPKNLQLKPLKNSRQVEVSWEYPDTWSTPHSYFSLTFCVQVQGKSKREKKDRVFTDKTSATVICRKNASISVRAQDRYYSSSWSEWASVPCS
Put plainly: competition ELISA on coated human IL-12. On the procedure:
(§2) ELISA plates were incubated at room temperature for 2 hr. After washing the wells with Washing Buffer, 0.5 μg/ml HRP-conjugated streptavidin (Pierce) was added to each well. Color development was performed with TMB substrate (Kirkegaard & Perry Laboratories).
In general terms: An ELISA detects its analyte on a solid surface through an enzyme-linked reagent.

The target of a further assay is T3, concanavalin A (UniProt P02866 30-281).
T3 construct: Control antigen
The experiment in a line: ELISA on coated protein. On the procedure: (§3) For binding to various proteins, ELISA plates were coated with chicken lysozyme (Sigma), human globin (Sigma), bovine albumin (Sigma), and concanavalin A (Pharmacia) as well as human and mouse IL-12 (R&D) at 0.1 μg/ml in 0.2 M sodium carbonate buffer (pH 9.4) and blocked with SuperBlock buffer (Pierce).

A further assay addresses T4, chicken lysozyme (chicken, UniProt P00698 19-147).
T4 construct: Control antigen; also called hen egg lysozyme
Put plainly: ELISA on coated protein. As for the experimental part: as §3

Another assay has as its target T5, bovine albumin (bovine, UniProt P02769 25-607).
T5 construct: Control antigen
Put plainly: ELISA on coated protein. On the procedure: as §3

For assay [4], the target named is T1, mouse IL-12. The experiment in a line: competition ELISA on coated mouse IL-12. On the procedure: as §1
In assay [5] the target is T2, human IL-12. Put plainly: competition ELISA on coated human IL-12; competitor of biotinylated humanized B1. On the procedure: as §1
Assay [6] deals with T1, mouse IL-12. The experiment in a line: competition ELISA on coated mouse IL-12; competitor of biotinylated ChDD2. As for the experimental part:
MaxiSorp plates (Nalge Nunc, Rochester N.Y.) were coated with 0.1 μg/ml human or mouse IL-12. […] ELISA plates were incubated at room temperature for 2 hr. After washing the wells with Washing Buffer, 0.5 μg/ml HRP-conjugated streptavidin (Pierce) was added to each well. Color development was performed with TMB substrate (Kirkegaard & Perry Laboratories).

Assay [7] concerns the target T2, human IL-12. Put plainly: competition ELISA on coated human IL-12; competitor of biotinylated ChDD2. As for the experimental part:
as §2

T5 sequence (P02769 25-607 limits assumed): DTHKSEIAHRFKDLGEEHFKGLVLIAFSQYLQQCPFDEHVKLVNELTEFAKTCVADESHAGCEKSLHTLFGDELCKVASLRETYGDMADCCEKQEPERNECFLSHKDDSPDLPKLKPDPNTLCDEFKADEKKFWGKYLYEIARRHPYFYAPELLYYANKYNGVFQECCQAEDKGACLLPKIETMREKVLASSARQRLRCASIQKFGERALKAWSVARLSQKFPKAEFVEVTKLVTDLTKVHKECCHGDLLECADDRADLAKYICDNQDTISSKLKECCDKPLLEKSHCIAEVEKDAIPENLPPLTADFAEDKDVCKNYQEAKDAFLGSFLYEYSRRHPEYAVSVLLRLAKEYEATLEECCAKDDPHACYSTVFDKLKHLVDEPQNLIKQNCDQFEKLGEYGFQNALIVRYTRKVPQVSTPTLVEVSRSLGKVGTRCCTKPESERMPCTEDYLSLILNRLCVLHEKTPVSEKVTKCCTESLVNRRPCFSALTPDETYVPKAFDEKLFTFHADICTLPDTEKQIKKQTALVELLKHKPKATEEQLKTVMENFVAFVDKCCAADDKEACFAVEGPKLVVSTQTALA
T4 sequence (P00698 19-147): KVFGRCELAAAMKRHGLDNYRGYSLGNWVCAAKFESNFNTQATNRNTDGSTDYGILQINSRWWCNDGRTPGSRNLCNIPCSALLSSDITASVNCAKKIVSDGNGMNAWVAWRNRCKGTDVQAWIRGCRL

B1: humanized B1 IgG1/λ monoclonal antibody (antibody, V domains shown)
VH: EVQLVESGGGLVQPGGSLRLSCAASGFTFSSYSMLWVRQAPGKGLEYVAEITNTGRTRRYGAAVKGRATISRDNAKNTVYLQMNSLRAEDTAVYYCARSSVYSCSYGWCAGNINAWGQGTLVTVSS
VL: SSELTQPPSVSVALGQTVRITCSGGYSGYYGWYQQKPGQAPVTVIYDNTRRPSDIPSRFSGSKSGSTATLTITGVQAEDEADYYCGTWDSSRVGIFGGGTKLTVL
notes: made in Sp2/0; also called HuB1
Broadly, the IC50 is the concentration that inhibits the measured activity by half. Consider B1, for which the IC50 was found to be 6.2 µg/mL in the assay with mouse IL-12 [1] and 5.8 µg/mL with human IL-12 [5]. In addition, the “fold better affinity than chimeric B1” value in the assay with mouse IL-12 [2] is approximately 2 fold. The “fold better binding than chimeric B1” value with human IL-12 [3] was approximately 1.4 fold. The binding result in the assay with concanavalin A, with chicken lysozyme and in the assay with bovine albumin was “no binding (tested: 0.01 µg/ml antibody)” each time. For the same molecule, in the assay with mouse IL-12 [4], the “fold decrease in relative binding against chimeric B1 (fold)” value was approximately 2.1 fold.

B2: chicken-human chimeric anti-IL-12 antibody DD2 (antibody, V domains shown)
VH: AVTLDESGGGLQTPGGGLSLVCKASGFDFSNYQLQWVRQAPGKGLEWVGGIGSSGSSTYYGAAVKGRATISRDNGQSTVRLQLNNLRAEDTGTYYCTRGVSPYSCWYAGRTSYTCHAYTAGSIDAWGHGTEVIVSS
VL: ALTQPASVSANPGETVKITCPGGGIYAGRYYGYGWFQQKSPGSAPVTVIYSNDKRPSDIPSRFSGSASGSTATLTITGVQADDEAVYFCGSHDSNVGVFGAGTTLTVL
notes: made in Sp2/0; also called ChDD2; chimeric DD2
As for B2, the 50% inhibitory concentration (IC50) in the assay with mouse IL-12 [6] turned out to be 2.4 µg/mL; with human IL-12 [7], 4 µg/mL.

B3: chimeric B1 IgG1/λ antibody (chicken-human chimeric anti-IL-12 antibody B1) (antibody, V domains shown)
VH: AVTLDESGGGLQTPGGALSLVCKASGFTFSSYSMLWVRQAPGKGLEYVAEITNTGRTRRYGAAVKGRATISRDNGQSTVRLQLNNLRAEDTGTYYCARSSVYSCSYGWCAGNINAWGHGTEVIVSS
VL: ALTQPASVSANLGGTVKITCSGGYSGYYGWYQQKSPGSAPVTVIYDNTRRPSDIPSRFSGSKSGSTATLTITGVQADDEAVYFCGTWDSSRVGIFGAGTTLTVL
notes: made in Sp2/0; also called ChB1
As for B3, the figures for the IC50 in the assay with mouse IL-12 [1] and in the assay with human IL-12 [5] were 13 µg/mL and 8.3 µg/mL, respectively. For the same molecule, the binding result with concanavalin A, in the assay with chicken lysozyme and with bovine albumin was “no binding (tested: 0.01 µg/ml antibody)” each time.

B4: humanized DD2 IgG1/λ monoclonal antibody (antibody, V domains shown)
VH: EVQLVESGGGLVQPGGSLRLSCAASGFDFSNYQLQWVRQAPGKGLEWVGGIGSSGSSTYYGAAVKGRATISRDNAKNSVYLQMNSLRAEDTAVYYCTRGVSPYSCWYAGRTSYTCHAYTAGSIDAWGQGTLVTVSS
VL: SSELTQDPAVSVALGQTVRITCPGGGIYAGRYYGYGWFQQKPGQAPVTVIYSNDKRPSDIPSRFSGSASGSTASLTITGAQAEDEADYYCGSHDSNVGVFGGGTKLTVL
notes: also called HuDD2; wild-type HuDD2
On to B4, for which the half-maximal inhibitory concentration (IC50) with mouse IL-12 [6] is 2.4 µg/mL; with human IL-12 [7] it was 4.2 µg/mL and 3.5 µg/mL.

B5: HuDD2 Vλ S69N mutant (antibody, IgG1, V domains shown)
VH: B4 VH
VL: B4 VL with S71N
notes: IgG1/λ as HuDD2; Kabat numbering
B5 registered an IC50 with human IL-12 [7] of 4.3 µg/mL.

B6: HuDD2 Vλ T46L mutant (antibody, IgG1, V domains shown)
VH: B4 VH
VL: B4 VL with T48L
notes: as for B5
For B6, in the assay with human IL-12 [3], the “fold reduction of binding affinity against wild-type HuDD2” value came out at 4.6 fold. In the assay with human IL-12 [7], the 50% inhibitory concentration (IC50) was determined as 16.1 µg/mL.

B7: HuDD2 VH T93A mutant (antibody, IgG1, name in Kabat numbering, V domains shown)
VH: B4 VH with T97A
VL: B4 VL
notes: as for B5
As to B7, in the assay with human IL-12 [7], the IC50 was determined as 3.3 µg/mL.

B8: HuDD2 VH V78L mutant (antibody, IgG1, name in Kabat numbering, V domains shown)
VH: B4 VH with V79L
VL: B4 VL
notes: IgG1/λ as HuDD2; H78 (Kabat) is the position named as the one tested; also called V79L
Take B8: the “fold reduction of binding affinity against wild-type HuDD2” value with human IL-12 [3] was 2 fold. Also, the half-maximal inhibitory concentration (IC50) with human IL-12 [7] came to 7 µg/mL.

B9: HuDD2 Vλ A66S mutant (antibody, IgG1, V domains shown)
VH: B4 VH
VL: B4 VL with A68S
notes: as for B5
In the assay with human IL-12 [7], B9 returned an IC50 of 3.4 µg/mL.

B10: HuDD2 VH A67F mutant (antibody, IgG1, name in Kabat numbering, V domains shown)
VH: B4 VH with A68F
VL: B4 VL
notes: IgG1/λ as HuDD2
In the case of B10, the IC50 in the assay with human IL-12 [7] came to 2.1 µg/mL.
